# PMC9346500
# Target: full-length (FL) UBQLN2 (UniProt Q9UHD9)
# Assay: NMR titration
substance,measurement,value
ubiquitin (Ub) (from UniProt P0CG48 1-76) (natural protein; other documents disagree on this pair),Kd,3000 nM
